The results in this text go back to paper doi:10.1101/2025.08.09.669497 (bioRxiv, 2025).

Test [1] concerns the target BKPyV VP1 pentameric core (residues 26-297) (BK polyomavirus (BKPyV)) (UniProt P03088). As to the kind of experiment: crystal structure.
Test [2] deals with 319C07 (Potravitug), human IgG monoclonal antibody (human). As to the kind of experiment: BLI. For orientation: Biolayer interferometry detects binding as a change in optical thickness at a sensor tip.
Test [3] has as its target T1, BKPyV VP1 pentameric core (residues 26-297) (BK polyomavirus, strain ; …, UniProt P03088). In words: crystal structure.
Test [4] concerns the target BKPyV VP1 pentamer, genotype III-AS (M23122), ALFA-tagged (BK polyomavirus (BKPyV), strain AS, UniProt P14996). In words: BLI.
Test [5] deals with T1, BKPyV VP1 pentameric core (residues …). As to the kind of experiment: crystal structure. The source holds these as a separate data set.
The target is the same in test [6]. In words: crystal structure. The source holds these as a separate data set.

Where two headings read alike, the source gives them in different places.

For “BKPyV VP1 pentameric core (residues 26-297) (from UniProt P03088 26-297) (domain or fragment)”, in test [1], the stoichiometry N came to 5.
In test [2], “BKPyV VP1 single-point mutant K69N in the Dunlop background (from UniProt P03088 1-362) (natural protein)” yielded a Kd of 4.5 µM and a fold reduction of affinity against the Dunlop background of over 1000 fold.

B1: ORT-VHH17 (VHH)
VHH: EVQLVESGGGLVQAGGSLRLSCAASGRDLSNYDMGWFRQAPGKEREFVATIKWRSGGTNHAESVKGRFTISRDNAKNTVYLQMSSLKPEDTAVYYCAAAPNWLGYSFKVDDYIYWGQGTQVTVSS
Consider B1, for which the “stoichiometry N” value in test [3] stood at 1 nanobody per VP1 monomer.

B2: 319C07 (Potravitug), human IgG monoclonal antibody (antibody, V domains shown)
VH: QVQLQQWGAGLLKPSETLSLTCAVYRGSFSAYYWTWFRQPPGKGLEWIGEINHRGYTNYNPSLRGRVSISVDTSKKQFSLKLRSVNAADTAVYYCATLRSTSGWHDYFDYWGQGTLVTVSS
VL: EIVLTQSPGTLSLSPGERATLSCRASQSVSSSYLAWYQQTPGQAPRLLIYGASSRATGIPDRFSGSGSGTDFTLTISRLEPEDFVVYFCLQYGSSPLTFGPGTKVDIK
Regarding B2, in test [4], the binding result is recorded as “binds”.

B3: Potravitug single-chain variable fragment (scFv-319C07) (scFv, V domains shown)
VH: QVQLQQWGAGLLKPSETLSLTCAVYRGSFSAYYWTWFRQPPGKGLEWIGEINHRGYTNYNPSLRGRVSISVDTSKKQFSLKLRSVNAADTAVYYCATLRSTSGWHDYFDYWGQGTLVTVSS
VL: EIVLTQSPGTLSLSPGERATLSCRASQSVSSSYLAWYQQTPGQAPRLLIYGASSRATGIPDRFSGSGSGTDFTLTISRLEPEDFVVYFCLQYGSSPLTFGPGTKVDIK
Take B3: the “stoichiometry N” value in test [5] was found to be 3 scFv per VP1 pentamer.

B4: ORT-VHH16 (VHH)
VHH: EVQLVESGGGLVQAGGSLRLSCAASGRTFDHYAMGWFRQAPGKERELVARISSGGGTTNYADSVKGRFTISRDNAKNTVSLQMNSLKPEDTAVYYCVGEIQYGTRYYWGQGTQVTVSS
B4: the “stoichiometry N” value in test [6] worked out at 1 nanobody per VP1 monomer.

In general, stoichiometry N refers to the number of molecules, sites or subunits per partner or assembly. What is called Kd is the constant that tells how readily two partners part at equilibrium. A higher Kd goes with lower affinity.
